From article PMC3145977, “Thermostabilisation of an Agonist-Bound Conformation of the Human Adenosine A2A Receptor” (Journal of Molecular Biology, 2011) come the findings set out here.

B1: GL10: A2AR mutant L48A-Q89A (protein, UniProt P29274 1-412, looked up, variant L48A Q89A)
Adenosine receptor A2a: MPIMGSSVYITVELAIAVLAILGNVLVCWAVWLNSNLQNVTNYFVVSAAAADIAVGVLAIPFAITISTGFCAACHGCLFIACFVLVLTASSIFSLLAIAIDRYIAIRIPLRYNGLVTGTRAKGIIAICWVLSFAIGLTPMLGWNNCGQPKEGKNHSQGCGEGQVACLFEDVVPMNYMVYFNFFACVLVPLLLMLGVYLRIFLAARRQLKQMESQPLPGERARSTLQKEVHAAKSLAIIVGLFALCWLPLHIINCFTFFCPDCSHAPLWLMYLAIVLSHTNSVVNPFIYAYRIREFRQTFRKIIRSHVLRQQEPFKAAGTSARVLAAHGSDGEQVSLRLNGHPPGVWANGSAPHPERRPNGYALGLVSGGSAQESQGNTGLPDVELLSHELKGVCPEPPGLDDPLAQDGAGVS
B2: GL1: A2AR mutant L48A-V12A (protein, UniProt P29274 1-412, looked up, variant L48A V12A)
Adenosine receptor A2a: B1 Adenosine receptor A2a with V12A, A89Q
B3: GL17: A2AR mutant L48A-F242A (protein, UniProt P29274 1-412, looked up, variant L48A F242A)
Adenosine receptor A2a: B1 Adenosine receptor A2a with A89Q, F242A
B4: GL15: A2AR mutant L48A-I238A (protein, UniProt P29274 1-412, looked up, variant L48A I238A)
Adenosine receptor A2a: B1 Adenosine receptor A2a with A89Q, I238A
B5: GL8: A2AR mutant L48A-F79A (protein, UniProt P29274 1-412, looked up, variant L48A F79A)
Adenosine receptor A2a: B1 Adenosine receptor A2a with F79A, A89Q
B6: GL9: A2AR mutant L48A-F83A (protein, UniProt P29274 1-412, looked up, variant L48A F83A)
Adenosine receptor A2a: B1 Adenosine receptor A2a with F83A, A89Q
B7: GL24: A2AR mutant L48A-Q89A-F79A (protein, UniProt P29274 1-412, looked up, variant L48A Q89A F79A)
Adenosine receptor A2a: B1 Adenosine receptor A2a with F79A
B8: GL29: A2AR mutant L48A-Q89A-T65A- S263A (protein, UniProt P29274 1-412, looked up, variant L48A Q89A T65A S263A)
Adenosine receptor A2a: B1 Adenosine receptor A2a with T65A, S263A
B9: GL6: A2AR mutant L48A-F62A (protein, UniProt P29274 1-412, looked up, variant L48A F62A)
Adenosine receptor A2a: B1 Adenosine receptor A2a with F62A, A89Q
B10: GL25: A2AR mutant L48A-Q89A-T65A-A50L (protein, UniProt P29274 1-412, looked up, variant L48A Q89A T65A A50L)
Adenosine receptor A2a: B1 Adenosine receptor A2a with A50L, T65A
B11: GL14: A2AR mutant L48A-A236L (protein, UniProt P29274 1-412, looked up, variant L48A A236L)
Adenosine receptor A2a: B1 Adenosine receptor A2a with A89Q, A236L
B12: GL5: A2AR mutant L48A-V57A (protein, UniProt P29274 1-412, looked up, variant L48A V57A)
Adenosine receptor A2a: B1 Adenosine receptor A2a with V57A, A89Q
B13: GL27: A2AR mutant L48A-Q89A-T65A-F83A (protein, UniProt P29274 1-412, looked up, variant L48A Q89A T65A F83A)
Adenosine receptor A2a: B1 Adenosine receptor A2a with T65A, F83A
B14: GL22: A2AR mutant L48A-Q89A-F62A (protein, UniProt P29274 1-412, looked up, variant L48A Q89A F62A)
Adenosine receptor A2a: B1 Adenosine receptor A2a with F62A
B15: GL20: A2AR mutant L48A-Q89A-V12A (protein, UniProt P29274 1-412, looked up, variant L48A Q89A V12A)
Adenosine receptor A2a: B1 Adenosine receptor A2a with V12A
B16: GL4: A2AR mutant L48A-A54L (protein, UniProt P29274 1-412, looked up, variant L48A A54L)
Adenosine receptor A2a: B1 Adenosine receptor A2a with A54L, A89Q
B17: GL7: A2AR mutant L48A-T65A (protein, UniProt P29274 1-412, looked up, variant L48A T65A)
Adenosine receptor A2a: B1 Adenosine receptor A2a with T65A, A89Q
B18: GL26: A2AR mutant L48A-Q89A-T65A-A54L (protein, UniProt P29274 1-412, looked up, variant L48A Q89A T65A A54L)
Adenosine receptor A2a: B1 Adenosine receptor A2a with A54L, T65A
B19: GL21: A2AR mutant L48A-Q89A-A54L (protein, UniProt P29274 1-412, looked up, variant L48A Q89A A54L)
Adenosine receptor A2a: B1 Adenosine receptor A2a with A54L
B20: GL19: A2AR mutant L48A-V282A (protein, UniProt P29274 1-412, looked up, variant L48A V282A)
Adenosine receptor A2a: B1 Adenosine receptor A2a with A89Q, V282A
B21: GL11: A2AR mutant L48A-S90A (protein, UniProt P29274 1-412, looked up, variant L48A S90A)
Adenosine receptor A2a: B1 Adenosine receptor A2a with A89Q, S90A
B22: F83A: A2AR point mutant F83A (protein, UniProt P29274 1-412, looked up, variant F83A)
Adenosine receptor A2a: B1 Adenosine receptor A2a with A48L, F83A, A89Q
B23: T65A: A2AR point mutant T65A (protein, UniProt P29274 1-412, looked up, variant T65A)
Adenosine receptor A2a: B1 Adenosine receptor A2a with A48L, T65A, A89Q
B24: S90A: A2AR point mutant S90A (protein, UniProt P29274 1-412, looked up, variant S90A)
Adenosine receptor A2a: B1 Adenosine receptor A2a with A48L, A89Q, S90A
B25: A54L: A2AR point mutant A54L (protein, UniProt P29274 1-412, looked up, variant A54L)
Adenosine receptor A2a: B1 Adenosine receptor A2a with A48L, A54L, A89Q
B26: Q89A: A2AR point mutant Q89A (protein, UniProt P29274 1-412, looked up, variant Q89A)
Adenosine receptor A2a: B1 Adenosine receptor A2a with A48L
B27: V57A: A2AR point mutant V57A (protein, UniProt P29274 1-412, looked up, variant V57A)
Adenosine receptor A2a: B1 Adenosine receptor A2a with A48L, V57A, A89Q
B28: F242A: A2AR point mutant F242A (protein, UniProt P29274 1-412, looked up, variant F242A)
Adenosine receptor A2a: B1 Adenosine receptor A2a with A48L, A89Q, F242A
B29: F79A: A2AR point mutant F79A (protein, UniProt P29274 1-412, looked up, variant F79A)
Adenosine receptor A2a: B1 Adenosine receptor A2a with A48L, F79A, A89Q
B30: F62A: A2AR point mutant F62A (protein, UniProt P29274 1-412, looked up, variant F62A)
Adenosine receptor A2a: B1 Adenosine receptor A2a with A48L, F62A, A89Q

Residue numbers refer to the chain shown, from its start. Names and notes keep the numbering of the source.

The subject of one data set is [^3H]NECA-bound A2AR. As to the kind of experiment: Thermostability assay of detergent-solubilised receptor with [3H]NECA bound (ligand plus format). The data set is classed as physicochemical, human.
Conditions: not given
How it is done: […]. After solubilisation in DDM, A2AR was bound to Ni^2+-NTA resin, washed to reduce the DDM concentration and then eluted (see Methods). […]. An aliquot of E. coli cells (14 mL) was thawed on ice and resupended in 500 μL of buffer A [50 mM Tris–HCl (pH 7.4), 0.4 M NaCl, 250 μg/mL lysozyme (Sigma) and 1 mg/mL DNase I (Sigma), supplemented with complete ethylenediaminetetraacetic acid (EDTA)-free Protease inhibitor cocktail (Roche)] and incubated for 1 h at 4 °C. Samples were then sonicated for 1 min at 4 °C using a cup-horn sonicator. The receptors were solubilised by adding 1% DDM and incubated for 1 h at 4 °C. Insoluble material was removed by centrifugation (5 min, 13,000g, 4 °C). The solubilised receptors were partially purified with Ni-NTA agarose (Qiagen). Agarose beads (300 μL) pre-equilibrated in buffer A were added to 700 μL of solubilised receptor. […].
(§1) The sample was incubated for 45 min at 4 °C, then 30 min at the specified temperature and then 30 min at 4 °C. Receptor-bound and free radioligands were separated as previously described on mini gel-filtration columns.[26] Receptor-bound ligands were transferred to a 96-well plate (PerkinElmer) and mixed with 200 μL of Optiphase supermix (PerkinElmer). The bound ^3H-labeled ligand was determined using a 1450 Microbeta Trilux counter (1 min per sample).
For all the thermostabilisation studies carried out in our laboratory, the apparent Tm is the temperature for which 50% of the solubilised receptor remains folded after 30 min of incubation. The rate constant of the protein denaturation is a function of the temperature, and consequently, thermal denaturation of a protein can be compared to a chemical reaction for which the rate of the reaction is dependant on the temperature. Arrhenius established that any chemical reaction is temperature dependant. […]. The reference measurement representing the total binding activity of the sample A0 was considered to be measured at 4 °C. From the graphical representation t = Log10(t1/2) (Fig. 2c), we could extract a half-life for each construct at any temperature to define the improvement in stability of the various mutants compared to WT A2AR.
On to B1, for which the “Apparent Tm in DDM, Single measurement” value amounted to 47.5 °C.
Consider B2, for which the “Apparent Tm in DDM, Single measurement” value is 45.5 °C.
B3: the “Apparent Tm in DDM, Single measurement” value came out at 39.5 °C.
For B4, the “Apparent Tm in DDM, Single measurement” value was 42.5 °C.
As for B5, the “Apparent Tm in DDM, Single measurement” value came to 45.5 °C.
In the case of B6, the “Apparent Tm in DDM, Single measurement” value is 43.5 °C.
On to B7, for which the “Apparent Tm in DDM, Single measurement” value was determined as 46 °C.
Regarding B8, the “Apparent Tm in DM, Single measurement” value came to 44.5 °C.
Turning to B9, the “Apparent Tm in DDM, Single measurement” value came out at 45 °C.
As to B10, the “Apparent Tm in DM, Single measurement” value was 44.5 °C.
With B11, the “Apparent Tm in DDM, Single measurement” value amounted to 40.5 °C.
As for B12, the “Apparent Tm in DDM, Single measurement” value worked out at 41.5 °C.
Consider B13, for which the “Apparent Tm in DM, Single measurement” value came to 44 °C.
As to B14, the “Apparent Tm in DDM, Single measurement” value came out at 45.5 °C.
For the molecule B15, the “Apparent Tm in DDM, Single measurement” value stood at 46 °C.
Turning to B16, the “Apparent Tm in DDM, Single measurement” value is 46 °C.
Consider B17, for which the “Apparent Tm in DDM, Single measurement” value came to 45 °C.
On to B18, for which the “Apparent Tm in DM, Single measurement” value is 46 °C.
Turning to B19, the “Apparent Tm in DDM, Single measurement” value amounted to 46 °C.
Take B20: the “Apparent Tm in DDM, Single measurement” value is 40 °C.
Turning to B21, the “Apparent Tm in DDM, Single measurement” value is 46 °C.

Still in this data set, the particulars now being: DM.
B18: the “Increase in stability versus WT receptor in DM” value turned out to be 21.5 °C.

The same data set, now with this note: [3H]NECA bound; DDM; from Fig. 2c.
As to B1, the “Improvement in stability compared to WT based on t1/2 (decrease in rate of unfolding)” value was found to be 136 fold.

The subject of the next data set is [^3H]ZM241385-bound A2AR. The data set can be described thus: Thermostability assay of detergent-solubilised receptor with [3H]ZM241385 bound.
Conditions: not given
The class given is physicochemical, human. How it is done:
An aliquot of E. coli cells (14 mL) was thawed on ice and resupended in 500 μL of buffer A [50 mM Tris–HCl (pH 7.4), 0.4 M NaCl, 250 μg/mL lysozyme (Sigma) and 1 mg/mL DNase I (Sigma), supplemented with complete ethylenediaminetetraacetic acid (EDTA)-free Protease inhibitor cocktail (Roche)] and incubated for 1 h at 4 °C. Samples were then sonicated for 1 min at 4 °C using a cup-horn sonicator. The receptors were solubilised by adding 1% DDM and incubated for 1 h at 4 °C. Insoluble material was removed by centrifugation (5 min, 13,000g, 4 °C). The solubilised receptors were partially purified with Ni-NTA agarose (Qiagen). Agarose beads (300 μL) pre-equilibrated in buffer A were added to 700 μL of solubilised receptor. […].
as §1
B22: the “Apparent Tm, Antagonist [^3H]ZM241385” value came to 16.5 °C and the “ΔTm, Antagonist [^3H]ZM241385” value was “− 15.5 °C”.
B23: the “Apparent Tm, Antagonist [^3H]ZM241385” value is 38 °C and the “ΔTm, Antagonist [^3H]ZM241385” value was “+ 6 °C”.
On to B24, for which the “Apparent Tm, Antagonist [^3H]ZM241385” value is 32 °C and the “ΔTm, Antagonist [^3H]ZM241385” value stood at 0 °C.
As to B25, the “Apparent Tm, Antagonist [^3H]ZM241385” value was determined as 38 °C and the “ΔTm, Antagonist [^3H]ZM241385” value is “+ 6 °C”.
Taken in the same sequence, the figures for B26 were 26 °C and “− 8 °C”.
Consider B27, for which the “Apparent Tm, Antagonist [^3H]ZM241385” value was found to be 38 °C and the “ΔTm, Antagonist [^3H]ZM241385” value was “+ 6 °C”.

The same data set, now with this note: at 4 °C; 100 nM radioligand.
For B28, the “Binding of [^3H]ZM241385” value is recorded as “did not bind”.
B29: the “Binding of [^3H]ZM241385” value is given as “did not bind”.
On the same count and under the same terms, with B30 the entry was “did not bind”.
